Consider 83 variants from the RNAGym collection of RNA variant scans (doi:10.1073/pnas.2313332121).

Variants at the floor of the assay were thinned out.

B1: TPR 5TU (parent)
chain: GGAUCUUCUCGAUCUAACAAAAAAGACAAAUCUGCCACAAAGCUUGAGAGCAUCUUCGGAUGCAGAGGCGGCAGCCUUCGGUGGCGCGAUAGCGCCAACGUUCUCAACUAUGACACGCAAAACGCGUGCUCCGUUGAAUGGAGUUUAUCAUG

The variants in this series derive from B1. Briefly: polymerase ribozyme fitness, log enrichment relative to wild type (log ratio); higher = more active; in vitro selection for triplet polymerase activity. Summed up:
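For each subunit of a heterodimeric triplet polymerase ribozyme, a mutant library was built by PCR and transcribed, then taken through a single in vitro selection round in triplicate. Selection involved annealing to a biotinylated primer, the partner subunit and triplets, incubation frozen at −7 °C, gel excision of extended constructs, capture on streptavidin beads and RT-PCR. Genotypes were retained after Illumina sequencing of inputs and outputs only with ≥10 input reads and ≥1 read in each output. Fitness is defined as the logarithm of a genotype's enrichment relative to wild-type enrichment, using inverse-variance-weighted averages across replicates, with the logarithm taken to base 2.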
For G11U C93U A115G, the “polymerase ribozyme fitness (log ratio)” value is -2.88.
Take G92U C95U A137U: the “polymerase ribozyme fitness (log ratio)” value is -4.11.
As for U4G A23U A26U C27G C63U U90G C93A C108U C114U C129G G140C, the “polymerase ribozyme fitness (log ratio)” value is at most -4.2.
As to U15G A73U C93U A120G, the “polymerase ribozyme fitness (log ratio)” value was -2.43.
As to C57U G126C, the “polymerase ribozyme fitness (log ratio)” value was 0.553.
Consider A28U A66U A73G G86U C103G C116U G152U, for which the “polymerase ribozyme fitness (log ratio)” value is at most -4.2.
Take A52C A98U: the “polymerase ribozyme fitness (log ratio)” value was -0.983.
In the case of A49C C54U, the “polymerase ribozyme fitness (log ratio)” value is at most -4.2.
Consider C38A C63A C95U A106G, for which the “polymerase ribozyme fitness (log ratio)” value was -1.81.
In the case of C57U G84C C95A C116G G136U A138C, the “polymerase ribozyme fitness (log ratio)” value is -4.17.
For the variant U15A C54U G92A, the “polymerase ribozyme fitness (log ratio)” value is -3.
In the case of A29U G70U, the “polymerase ribozyme fitness (log ratio)” value is at most -4.2.
For A22U C76U U102G, the “polymerase ribozyme fitness (log ratio)” value was -3.01.
Consider G59C G71A A115G, for which the “polymerase ribozyme fitness (log ratio)” value was -4.09.
With C96G G100U, the “polymerase ribozyme fitness (log ratio)” value was -3.95.
Take U45A G140U: the “polymerase ribozyme fitness (log ratio)” value was -4.19.
Under C10A C14U C93G C149U stands at most -4.2; under A20C U53A U55A, -2.52; under G50A A52C G84U A122U G141U, -3.68.
Under U53A A137U stands at most -4.2.
As for A29G C51U C96G, the “polymerase ribozyme fitness (log ratio)” value was at most -4.2.
With C14G G83A U90G G92U U102G C105A C118U A120C U146G, the “polymerase ribozyme fitness (log ratio)” value was at most -4.2.
As to A22C U53A U56A A73G, the “polymerase ribozyme fitness (log ratio)” value is -1.97.
Take C27G A39C G59C C85G C105G: the “polymerase ribozyme fitness (log ratio)” value was at most -4.2.
G50C C63G C96A C118U A119C: the “polymerase ribozyme fitness (log ratio)” value is -0.626.
On to A49C A52C A66G G86C A119G, for which the “polymerase ribozyme fitness (log ratio)” value is at most -4.2.
As for U4A C18U C79G A91U A142C U148C, the “polymerase ribozyme fitness (log ratio)” value is at most -4.2.
Regarding G83A C95U A106C A107G, the “polymerase ribozyme fitness (log ratio)” value is -3.5.
Take A30G G71A C85G G141C: the “polymerase ribozyme fitness (log ratio)” value is at most -4.2.
On to U56A C75G C93A A98G A106C G141A, for which the “polymerase ribozyme fitness (log ratio)” value was at most -4.2.
In the case of G50C C118A, the “polymerase ribozyme fitness (log ratio)” value was -4.05.
As for A12G U13A U31A C57A G65A C85G, the “polymerase ribozyme fitness (log ratio)” value is at most -4.2.
As to U15C A40U U53A G84C, the “polymerase ribozyme fitness (log ratio)” value was -1.96.
Consider A3U A21U G50U G58A U77A G100U A137G, for which the “polymerase ribozyme fitness (log ratio)” value was at most -4.2.
Turning to G88A G117U, the “polymerase ribozyme fitness (log ratio)” value is -3.84.
As for A16U A29C C35U A41C G86A A98U C114U G141U U145G, the figure is at most -4.2; as for C27A, -2.95; as for C27U, -1.13.
Under G62U C72G C93A stands at most -4.2; under A17C A40U U53A C76G C93U U146G, at most -4.2; under A19U C69U G92C G126C, -1.04.
With C18G U53A C57U G59C U61A C95G, the “polymerase ribozyme fitness (log ratio)” value is -3.99.
For the variant C5G C54U G84A U127G, the “polymerase ribozyme fitness (log ratio)” value was at most -4.2.
On to C51U U56A, for which the “polymerase ribozyme fitness (log ratio)” value is -0.892.
Under C14U A41C C75G G84U C118A stands at most -4.2; under A26U, -1.21.
For the variant G83U G117U, the “polymerase ribozyme fitness (log ratio)” value is -0.498.
Under C10A A22U A24G A40C A52C C57U G70A C93U A147C stands -4.05; under U15C A40C C93A C95U C116A A121U, -1.18.
As for C54G G86A A120U, the figure is -2.8.
Consider C10U A41U G92C U139G, for which the “polymerase ribozyme fitness (log ratio)” value was -4.06.
For U4C U53A U55A G81C A150U, the “polymerase ribozyme fitness (log ratio)” value is -1.4.
Take U78C C95U C108U C116U: the “polymerase ribozyme fitness (log ratio)” value was at most -4.2.
As to C57A A60G G74U, the “polymerase ribozyme fitness (log ratio)” value is -4.12.
For the variant G59C U61G C96G C105U A115U A150U, the “polymerase ribozyme fitness (log ratio)” value was at most -4.2.
As for A24U U56C G62A A64G G68C G83A G124U U146A, the figure is at most -4.2.
Consider A73G U145G, for which the “polymerase ribozyme fitness (log ratio)” value was -0.0134.
Take A3G G71U C96A A107G C116U C125G: the “polymerase ribozyme fitness (log ratio)” value was at most -4.2.
Take U4C C57A C87A U146A A150C: the “polymerase ribozyme fitness (log ratio)” value was at most -4.2.
Take U15G A19U A20U A29G U56A C57A C63U G94A U145G: the “polymerase ribozyme fitness (log ratio)” value was at most -4.2.
Under U56A C69U A106G stands -1.79; under U55A C72U C79A A107G, at most -4.2.
On to C96G A97G G143U, for which the “polymerase ribozyme fitness (log ratio)” value was -3.14.
In the case of A12C C14G A26U A49C G59A C131A, the “polymerase ribozyme fitness (log ratio)” value was at most -4.2.
A12G A26G G94C C95A A137G: the “polymerase ribozyme fitness (log ratio)” value was -4.
Regarding A41G G50C C125U A142G, the “polymerase ribozyme fitness (log ratio)” value was -3.92.
Under U53A U56A G58A C85U stands 0.824.
As for G70A C93U G141C, the figure is at most -4.2; as for A37U G58C A97G C132U, -2.67; as for A16C U55A A106G, -1.85.
Regarding A21U G42C U44A U53A U55A C87U, the “polymerase ribozyme fitness (log ratio)” value is at most -4.2.
Under A28G G140A stands -4.13; under A3U A49U U55C A91U, at most -4.2; under A49C C79G G94C, at most -4.2.
Consider G50U A60C G84A, for which the “polymerase ribozyme fitness (log ratio)” value is -2.47.
As for C14A A16C A19U U82A G83U C149U, the figure is -3.89; as for C57A C105U, 1.29.
For A60G C75G G81C G94U C103A A107U U111G, the “polymerase ribozyme fitness (log ratio)” value was at most -4.2.
As for U56A G58C C85U, the figure is -0.365; as for A20U A47C C57U A64C G84C U148G, at most -4.2.
Under G34C G58A U77A U82G G86A C105A U127A G141C stands at most -4.2; under A21U C99U C116U C125U, -1.64; under C10A C54A A91C C105A C129A G143C, at most -4.2.
